Reference: doi:10.1101/2025.04.04.647159

Biological target: Candidatus Liberibacter asiaticus pyrophosphate-fructose-6-phosphate 1-phosphotransferase (Candidatus Liberibacter asiaticus)
Assay: SEC

For “Candidatus Liberibacter asiaticus pyrophosphate-fructose-6-phosphate 1-phosphotransferase (enzyme)”, the stoichiometry N was 4.
